Assay: label from the status in PepcDB records
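Further: failed if final PepcDB status was selected cloned or expressed and not failed if soluble or beyond.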

Sequence | protein production
MTVDSNTSSGRGNDPEQIDLIELLLQLWRGKMTIIVAVIIAILLAVGYLMIAKEKWTSTAIITQPDAAQVATYTNALNVLYGGNAPKISEVQANFISRFSSAFSALSEVLDNQKEREKLTIEQSVKGQALPLSVSYVSTTAEGAQRRLAEYIQQVDEEVAKELEVDLKDNITLQTKTLQESLETQEVVAQEQKDLRIKQIEEALRYADEAKITQPQIQQTQDVTQDTMFLLGSDALKSMIQNEATRPLVFSPAYYQTKQTLLDIKNLKVTADTVHVYRYVMKPTLPVRRDSPKTAITLVLAVLLGGMIGAGIVLGRNALRSYKPKAL | not failed
MILVSLVVVLFLVLLNGVFSMSELAVVSARKARLQGFAERGDRGAKLALEMSEHPTRFLSAVQVGITLIGIFAGAYGQATIAAALDAWLEASVPALAKYSEAIATTLVVIGLTYVSVILGELVPKRLALIFPDAIARRMAPFLAVVATVLRPFVTLLTVSTAAVLRLMGVRDERNTSVTSEEVEAVLAEGADAGLIEPEERSMIQEVLRLGDRPVRVAMTPRRDLFWVSLADDTETVLKEIRASAHSRIVVATEGDLDGDVGVLLKKDLLDACLSGEPLDLKAHVQQPLAIPETMSLLKALQLFKSTSLHMALVVDEFGSLQGAITPLDLLEMIAGDFPEDHDDDEKRIIRREDGGWLIDARLDIQELNDHLGENFEADGGYHTVAGLILDRLGRLPTEGEHVEIGGFDLEIVDMDGSRIDKVILKPSKRRKEGQEG | failed
MSPIILSITIIAYFMILFAISYIAGHKADNEGFFVGNRKSAWYIVAFAMIGSTISGVTFVSVPGMVQASGFSYLQMVLGFIVGQFIIAFILVPLFYRMNLVSIYEYLENRFGASSYKTGAWFFFISKMLGAAVRLFLVCLTLQLLIFEPFHIPFIINVILTVLIVWLYTFRGGVKSLIWTDVLKTFCLVVSVVLCIYYIASSLHLNFSGLVSTISDNDLSKMFFFDDVNDKRYFFKQFLAGVFTVIAMNGLDQDMMQRNLSCKNFRDSQKNMITSGISQFFVILLFLMLGVLLYTFTARQGIENPGKSDELFPMIATGNYFPGIVGILFIIGLIASAYSAAGSALTALTTSFTVDILNAHKKDEAALSKIRKHVHIGMAFVMGIVIFVFNLLNNTSVIDAIYTLASYTYGPILGLFAFGIFTKKQVYDPYIPLVAILSPALCYVLQRNSEAWFDGYQISYELLILNAAFTFLGLCLLIKRKSSVAPINNSLIKKH | failed
MSFRVSASSSVKPEKDIRIGLLGASGYTGAEIVRLLANHPHFQVTLMTADRKAGQSMESVFPHLRAQKLPTLVSVKDADFSTVDAVFCCLPHGTTQEIIKELPTALKIVDLSADFRLRNIAEYEEWYGQPHKAVELQKEVVYGLTEILREDIKKARLVANPGCYPTTIQLPLVPLLKANLIKHENIIIDAKSGVSGAGRGAKEANLYSEIAEGISSYGVTRHRHVPEIEQGLSDVAQSKVTVSFTPHLMPMIRGMQSTIYVEMAPGVRTEDLHQQLKTSYEDEEFVKVLDEGVVPRTHNVRGSNYCHMSVFPDRIPGRAIIISVIDNLVKGASGQALQNLNIMLGYPETTGLLHQPLFP | failed
EPPDGVRIVPVTDRAGVDLVADVHEKAFGTDSTRMRHQLLAQVTDDPDAVVAVVALAGDEPVSAARMELVPGTRFAGLWGGGTVEGERGRGIYRALVAHRAKVAADRGYRYVQVDATSQSRPVLARLGFEPLTTTTPYVS | failed
MSLASFPVQILPNLYLGSARDSANLESLAKLGIRYILNVTPNLPNFFEKNGDFHYKQIPISDHWSQNLSRFFPEAIEFIDEALSQNCGVLVHSLAGVSRSVTVTVAYLMQKLHLSLNDAYDLVKRKKSNISPNFNFMGQLLDFERSLREGHHHHHH | not failed
MALLAIDLDMFGHGSAGQVLGRTDVDRVEYQYSTKSLLSIYIFYEETCGFFIDEEKKVFVVFELDESQAYKYAYIIGENICLKKLDLGEVRTFSCPIVCSSSYVPS | failed
MKMGMVFVFVLLTVFMAVMSSTRVSAQSNCKNELKKSLKPCFSYLTSSYPSLPDDSDCCPSLLDISKTSVDCFCQYLNSGGSILDINANFIQARRLPEICGVDPYLASVCNEGKNFLTSIYEETPIL | failed
MTMQDILYYIHTYGLIVLFLIVVGEYCVPAMPTGIVMPAAGIIAGQAHKGIIKVMLISLIAGLVGSIILYLLGYFVGSTLLEKIKIKHPKIEDKLEKTEKILEKHSFLGIFICRLIPIIRTYVSLICGTVKVNFFKFIIFSIPGIFCWNFTGIVVGYFFGGKIRF | failed
SLDDDDYPAYTMGRAAAILGTTPAFLRALGDARLITPLRSEGGHRRYSRYQLRIAARARELVDQGTPVEAACRIIILEDQLEDALRLNEEMRRSSDQPTA | failed
MGCYHPLSGTDGTLMRHTLPIAPQFYVTAPQPCPYLAGRMERKLFTALQGEGAERLNNALSQQGFRRSQNVLYRPSCADCAACLSARIDVSAFRASRSQKRAMRRNAHLTRRATSPWATDEQYELFRRYLDSRHADGGMADMDVFEFAAMIEETPIRSRVIEYAHRDTRALIGVSLTDVLDDGLSMVYSFYDPDLHRDSLGTHMILDHIAIAREAGLPYVYLGYWVPGSPKMGYKSRFSGLEIYLGGRWQAMTDPEAHDAIRHPLSTDPIAEQVANIQLPDRWPTGDLEHHHHHH | failed
MKSHKMMGGGISMHYITACLKIISDKDLNEIMKEFKKLEEETNKEEGCITFHAYPLEPSERKIMLWEIWENEEAVKIHFTKKHTIDVQKQELTEVEWLMKSNVND | not failed
MNLDTPLADGLERAKRFEQGLQQVVLGQERPIRLLTLAVFARGHALLEGGVGVGKTTLLRAVARGIGGDYERIEGTIDLMPNDLVYYTYLDEQGRPGVAPGPLLKHGEQLSIFFFNEINRARPQVHSLLLRVMAERSVSAFNREYRFPYLQVFADRNRVEKEETFELPAAARDRFMLEIAIEPPADPAHIDQILFDPRFYDPDRLVASAPADTLSFRELNGIAEALQGGIHVSARLRSYVQDLWRATRRPEDFGIALHEADSGDMIEAGSSPRGMSYLVRLARVQAWLSGRDRVEPEDVQYVFAPAVGHRIFLKPVYEYRRAELIPELVGKLIRRIAAPLEHHHHHH | failed
MLKQTSDSPVGTLFIIIEDAHITKISYDEPTNWEILAGEKGEIAIYQQLLEQLAGYFEGEREVFDLPIFLQGTPFQQRVWQALSEIPYGVVVSYKDIAIAAGSPKAVQAVGQANRANPIPILIPCHRCVKSDGALGGYNGADIDKKQYLLALEKGLRLS | failed
MATFEEVSVLGFEEFDKAVKEHESKTIFAYFSGSKDTEGKSWCPDCVEAEPVIREGLKHVTEDCVFIYCQVGDKPYWKDPNNDFRQKLKITAVPTLLKYGTPQKLVESECCQSSLVEMIFSED | not failed
MEVNKPLPLISIIVPIYNIAEYASECIQSLINQTYKNIEIILVDDGSTDHSPAICDEFAEQDERIKVIHKRNGGLSDARNAGLDVATGEYIGFVDGDDWVDEDMYETLYHLIYEHQADISICTHYTELPNRTKVKYKSKKTKIFSSQKAIATLIEDKIIQNYIWEKLFKRELFTELRFPVGWSFEDIALCYKVFHKARKIVLLQTPKYHYRTRPGSITNSTRNPLKEFQYLQALHEQFQFAAENNIKVRKPKKLVQKTFHFINHIIILPPSSLKKKYINDAFEIAHTYDYLRNWEIGVAATLRRFFVYNYFNAYASVIITYRKYIPARTVKSTTEFFFVRRVATSLATAMRSILYILEHHHHHH | failed
MLSMLALGSEKLMMGNNFPGSGVCFVYTDFGIPEYYRIIVLGLIALVGIKEMLLTSRKEDHFSIDSIDIGIFPLLICFVANFLFAGLEIIFTGLSP | failed
MTRRPLLLPALGLALGVGLGLEGATVPPAALGALPLALLPRLAPLAFAAAGWLAAASARVPPAAPPDGAVLVRGRVVGAPDRLEDRLRFPVRTAGGALLEAWAEPTPWPLALGDEVLFRATLRAPAGRRNPGGRDPGDRLRSGGAALVALADGPVVRTAAPAAASRLERARDRLAEAAGRWLPPDQAALVRAIGTGDRAALDPEASASFARSGLAHVLAVSGFHLVVVAFGLERLLRALLLRADAVAARADPRRVAAALTLPCALLYALATGAGAPVVRAALAAAVILAGALLDRAADPLNSLALAALAILAAEPAALLDASFQLSFAAVAGLALWATPLRGALPVARPAPGSWRARLLEPFLSGAAATVAATLATAPVLAFHFRQLPLLGVAANVAAIPLGAALTALAALAAVAAAASPLAAAPFLLAAGPLAAALRAVSDAAAAPRWGAVGLASPGGWAAAAATALVLGVPALPRRLRLGAGALAAALLLLPGPLRAAAARARGGLEVIFVSVGQGDAALLRLPDGSAVLVDGGGAAGGGPDPGARDLVPLLRDLGVRRLEAVFVSHPHPDHVLGLEAVARAFPVARAYSNGDRGDGPAREVLAALAPVTLAPGEAWERAGVRFEALGGDRTPFAANDASLVLRATYGATTFLFPGDVEAAGEAAAVARGGLRADVVKIPHHGSRTSSTEPFVRAVRARWAVACLGAHNRFGFPHPEPLARWAAAGAEVLRTDEGAVRFLSDGRAVRRVEAGSVLDALATWREQP | failed
MQSAKEKISDMASTAKEKLNIGGAKAQGHAEKTMARTKKEKKLAQEREKSKEAQAKADLHQSKAEHAADAQVHGHHLPGHSTYPTRATGANYPPGQI | failed
MRKVLMFLSTALLLAILSLSFTGLDLKAKAASDLYPLPAPIIDVFPDDGLAKDMAKNLNKDSVNDVIDQDDLDALTGLGFETSTITNDSMQLLERAMFNNVTDVSIMEFGAKLTEFPDITTIPHLKTLFFADPPGRLTRNLSLPNYQNYPEMDTITMSGNNLIGSIPDFTGMPALKQLYMSEMLITSDELPNFNNIPLLITLDLSSNQLTTIPDFQNIPNLTFLDLNANLLTNTPDFQNLPKLTDLNLRHNNLTGTMVNYTNLPSLESLNLDYNFLTELPSNVLDTIYVQSQNGELPDQTINQGDTCTIDLPIYFQMEETNMLVSPEVTGEYIGISVIQLPTTVNEEGNTITVDTSALSPGEYKLDVSYNHNYATGGVCSYDWNVTIN | failed
MDFVPSLPTLIAFTIAILLLAVTPGPDMTLWISRSLREGRAAGFMTLVGTNIGITVHTMLVAFGVAALIVASPTAFMILKTGGAAYLVWLAIQAIRKGSDFVMVKSTGEKAQASLKSALLNGIWVNLLNPKVIIFFMTFLPQFVSATDPHVTGKLIFLGIWSIIVALPIGIGIVVTADILSAWLQRNRKVLRGLDYTIAGVFSLFAVKIFFTQTR | failed
MNFSLVHLRENVRRVSVTVAIGAGALLISGPFFTAHTAEATETYVLAESPEFYQDNVTDYTGQISSSDITNIQAAIDDVKASEQKVIFVVFLSSFDGVDPETWTQQALQANGGGNVLIYALAPEERQYGIQGGTQWTDAELDAANNAAFQALSQEDWAGSALALAESVGSSSSSSSGSSSSSDFSGAWLAAAGVGTVAAGGGIWAYSRSRKKKTSAATLEDAREIDPRDTNRLMQLPMETLEHLAQEELTSTDDSIRRGKEELAIATSEFGPERTRSFNRAMNHSTGTLQKAFEIQQRLNDSIPESEAERQSMLVEIISSCGQADDALDAEAQNFADMRNLLINAGSKLDALTQKSVDLRTRLPKAQETLAGLRTRYSAEVLESIDDNVDLASASLDEAEEVLPQAYEIESMPAGEQGGLIDAIRHIEHAITTADKLLAGVEHADENISTAKANVADLIQEISDEINEAGQLKQSAGADGARADWASLDDAVRAASAALITASADAEKDPLGTYTELVDVDSALDTQLDTLRATAADQARQLRVFDQQLQSARSQIQKAEDLISTRGRIVKSEARTHLANAQKLYAMAQQNRTRDTRAGIDYGRQAAVAAQRASKSAQNDITTYNNRHNSGGGTTGAIVTGMVINSILNSGRGGGFGGGGGFGGGGGGFSGGGGGGGGFRGGRF | failed
ERYMQDFDLIFKELERWGPGSESDTLKALQKVPNKSMTLLEIGCGQGIATELFARHTDAMITAVDNEEFALKHLMEKMQQNGLEDKITTVCADMAKMPFETKSFDLIWSEGSAYIMGVQNALKAWKPLLSEDGVLVVSDLVWSTDKPSEGALSFWKKEYPDMVSVSERIKHAQQAGYEVIEHFSLSDAAWEAYYHPLIERLDTLKDKLIDSPVLIDFENEITAFKQRANEFDYEIFILRSR | failed

Reference: a protein production outcome set (Wang et al. 2014)
